Data published in patent US6544767B1, “Cathespin O2 protease” (Axys Pharmaceuticals, Inc., priority 1994, dated 2003).
Where two headings read alike, the source gives them in different places.

Assays:
[1] = biological target: T1, recombinant human cathepsin O2 (Homo sapiens, UniProt P43235); experiment: Inhibitor profile, fluorimetric enzyme assay with Z-FR-MCA; format: biochemical
T1 construct: the mature protein spans from position 115 to 329 (215 amino acids); made in house; host or cells: Sf9 insect cells (baculovirus, pVL1392)
T1 sequence (P43235 115-329): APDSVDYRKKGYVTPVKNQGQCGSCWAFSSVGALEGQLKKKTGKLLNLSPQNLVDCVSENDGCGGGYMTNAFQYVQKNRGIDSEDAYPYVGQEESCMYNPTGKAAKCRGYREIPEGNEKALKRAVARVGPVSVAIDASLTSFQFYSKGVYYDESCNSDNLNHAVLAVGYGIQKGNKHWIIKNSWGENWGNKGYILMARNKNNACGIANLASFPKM
Method: Human cathepsin O2 was assayed with a fluorogenic substrate Z-FR-MCA (MCA, methyl coumarylamide) in 100 mM sodium acetate buffer, containing 2.5 mM dithioerythreitol and 2.5 mM EDTA. Initial rates of hydrolysis of the MCA-substrate are monitored in 1-cm cuvettes at 25° C. at an excitation wavelength at 380 nm and an emission wavelength at 450 nm. The concentration of Z-FR-MCA is 5 μM under standard conditions.
The inhibition of cathepsin O2 was assayed at a constant substrate (5 μM Z-FR-MCA) and enzyme concentration (1 nM) in the presence of different inhibitor concentrations in the substrate assay buffer. Cathepsin O2 was preincubated with the inhibitors for 10 min and the reaction was started with substrate. The residual activity was monitored and percent inhibition was calculated from the uninhibited rate.
The efficacy of protease class specific inhibitors to inhibit cathepsin O2 was determined by adding the inhibitor to the purified enzyme in a fluorimetric enzyme assay (described above).

[2] = tested on: Soluble calf skin Type I collagen; experiment: Collagenase activity, SDS-PAGE; format: biochemical
Method: (§1) FIGS. 9A and 9B depict SDS PAGE of type I collagen (soluble calf skin collagen) after digestion with recombinant human cathepsin O2 and L and bovine trypsin. FIG. 9A: Collagenase activity: Digestion of soluble calf skin collagen at 28° C. and at pH 4.0, 5.0, 5.5, 6.0, 6.5, 7.0 by human cathepsins O2, S and L (each 50 nM) for 12 hours. The reaction was stopped by addition of 10 μM E-64. Untreated soluble collagen was used as standard (S). FIG. 9B: Gelatinase activity: Digestion of denatured soluble calf skin collagen (10 min heated at 70° C.) at 28° C. and at pH 4.0, 5.0, 5.5, 6.0, 6.5, 7.0 by human cathepsin O2 (0.1 nM), cathepsin L (0.2 nM) and human cathepsin S (1 nM). Molecular mass standards are indicated in the left lane.
(§2) Soluble calf skin Type I collagen was diluted to 0.4 mg/ml into 100 mM-sodium acetate buffer, pH 4.5, 5.0, 5.5, in 100 mM-potassium phosphate buffer, pH 6.0, 6.5 and 100 mM-Tris/HCl, pH 7.0 containing 2 mM-dithiotreitol/2 mM-EDTA. Human cathepsins O2, S and L and bovine trypsin (Sigma) were incubated at concentrations of 100 nM enzyme concentration for 10 hours at 28° C. To measure the gelatinase activity of cathepsins O2 and S, Type I collagen was heated for 10 min at 70° C. prior to incubation with the proteases. In the presence of 1 nM proteases the reaction mix was incubated for 30 min at 28° C. The samples were subjected to SDS polyacrylamide electrophoresis using 4-20% Tris-glycine gels (Novex, San Diego, Calif.).

pH activity profile = format: biochemical; details: for pH optimum: calculated from (pK1 + pK2)/2
Method: Initial rates of substrate hydrolysis were monitored as described above. The pH activity profile of human cathepsin O2 was obtained at 1 μM substrate (Z-FR-MCA) concentration ([S]<<Km where the initial rate vo is directly proportional to the kcat/Km value). The following buffers were used for the pH activity profile: 100 mM sodium citrate (pH 2.8-5.6) and 100 mM sodium phosphate (pH 5.8-8.0). All buffers contained 1 mM EDTA and 0.4 M NaCl to minimize the variation in ionic strength. A three protonation model (Khouri et al., Biochem. 30:8929-8936 (1991)) was used for least square regression analysis of the pH activity data. The data were fitted to the following equation.
(kcat/Km)obs=(kcat/Km)/([H^+]/K1+1+K2/[H^+])

pH stability at 37° C. = format: physicochemical
Method: The residual activity was measured in time intervals using the above described fluorimetric substrate assay. The pH stability of cathepsins O2, S and L was studied at three different pH values. Recombinant human cathepsins O2, S and L were incubated at 37° C. in 100 mM sodium acetate buffer, pH 5.5, in 100 mM potassium phosphate buffer, pH 6.5 and in 100 mM Tris/HCl, pH 7.5 containing 5 mM dithiothreitol and 2.5 mM EDTA. Incubating for 0.5, 1, 2 and 4 hours, the activity remaining was determined using 5 μM Z-FR-MCA for cathepsin O2 (100 mM potassium phosphate buffer, pH 6.5) and cathepsin L (100 mM sodium acetate buffer, pH 5.5) and 5 μM Z-VVR-MCA for cathepsin S (100 mM potassium phosphate buffer, pH 6.5).

[^3H] elastin = Elastin degradation assay; format: biochemical
Method: Elastin (2 mg) was incubated in I ml buffer containing 2.5 mM dithiothreitol, 2.5 mM EDTA and 0.05% Triton X-100 for the cathepsin O2, S and L assays. Aliquots were withdrawn after 10, 20, 30, 50, 90, 120 and 180 min, centrifuged for 1 min at 14,000×g and counted in a 24-well plate containing scintillation fluid with Liquid Scintillation counter (1450 Microbeta Plus, Wallac/Pharmacia). Concentrations of human cathepsins O2, S and L and bovine elastase in the elastin degradation assay were 65 nM, 28 nM, 80 nM and 80 nM, respectively. To determine the pH effect on protease activity the digests were carried out at pH 4.5 and 5.5 (100 mM sodium acetate, 2.5 mM each dithiothreitol and EDTA, 0.05% Triton X-100), and at pH 7.0 (100 mM Tris/HCl, 2.5 mM each of dithiothreitol and EDTA, 0.05% Triton X-100). Pancreatic bovine elastase (Boehringer, Mannheim, Ind.) was assayed under the same conditions except that neither dithiothreitol nor EDTA was added to the incubation mixture.

[3] = tested on: denatured soluble calf skin collagen; experiment: Gelatinase activity, SDS-PAGE; format: biochemical
Method: as §1, §2

[4] = from literature; cited from earlier work

B1: chicken cystatin: cysteine protease inhibitor (protein)
chain: SEDRSRLLGAPVPVDENDEGLQRALQFAMAEYNRASNDKYSSRVVRVISAKRQLVSGIKYILQVEIGRTTCPKSSGDLQSCEFHDEPEMAKYTTCTFVVYSIPWLNQIKLLESKCQ
% inhibition ([1]; [inhibitor] 0.1 μM): 100%
inhibition of enzyme activity ([1]; concentrations above 0.1 μM): completely inhibit

B2: trypsin: bovine trypsin (Sigma) (protein, UniProt P00760 24-246, looked up)
Serine protease 1: IVGGYTCGANTVPYQVSLNSGYHFCGGSLINSQWVVSAAHCYKSGIQVRLGEDNINVVEGNEQFISASKSIVHPSYNSNTLNNDIMLIKLKSAASLNSRVASISLPTSCASAGTQCLISGWGNTKSSGTSYPDVLKCLKAPILSDSSCKSAYPGQITSNMFCAGYLEGGKDSCQGDSGGPVVCSGKLQGIVSWGSGCAQKNKPGVYTKVCNYVSWIKQTIASN
collagenolytic activity [2]: No degradation

B3: cathepsin O2: recombinant human cysteine protease of the papain family, mature enzyme expressed in Sf9 cells (protein)
chain: APDSVDYRKKGYVTPVKNQGQCGSCWAFSSVGALEGQLKKKTGKLLNLSPQNLVDCVSENDGCGGGYMTNAFQYVQKNRGIDSEDAYPYVGQEESCMYNPTGKAAKCRGYREIPEGNEKALKRAVARVGPVSVAIDASLTSFQFYSKGVYYDESCNSDNLNHAVLAVGYGIQKGNKHWIIKNSWGENWGNKGYILMARNKNNACGIANLASFPKM
pK1′ of pH activity profile (pH activity profile): 3.43 ± 0.05
width of the pH profile (pH activity profile): 4.15
pH optimum (pH activity profile): 6.1
pK1 of pH activity profile (pH activity profile; listed as Human cathepsin O2): 4.0
pK2 of pH activity profile (pH activity profile; listed as Human cathepsin O2): 8.13
pK1 of pH activity profile (pH activity profile; listed as human cathepsin O2): 4.00 ± 0.02
pK2 of pH activity profile (pH activity profile; listed as human cathepsin O2): 8.13 ± 0.01
Residual activity (%) (pH stability at 37° C.; pH 5.5, 37° C., 0.5 hr): 91%
Residual activity (%) (pH stability at 37° C.; pH 5.5, 37° C., 1 hr): 88%
Residual activity (%) (pH stability at 37° C.; pH 5.5, 37° C., 2 hr): 70%
Residual activity (%) (pH stability at 37° C.; pH 5.5, 37° C., 4 hr): 52%
Residual activity (%) (pH stability at 37° C.; pH 6.5, 37° C., 0.5 hr): 85%
Residual activity (%) (pH stability at 37° C.; pH 6.5, 37° C., 2 hr): 22%
Residual activity (%) (pH stability at 37° C.; pH 6.5, 37° C., 4 hr): 15%
Residual activity (%) (pH stability at 37° C.; pH 7.5, 37° C., 0.5 hr): 11%
Residual activity (%) (pH stability at 37° C.; pH 7.5, 37° C., 1 hr): 0%
Residual activity (%) (pH stability at 37° C.; pH 7.5, 37° C., 2 hr): 0%
Residual activity (%) (pH stability at 37° C.; pH 7.5, 37° C., 4 hr): 0%
pH of maximal elastinolytic activity ([^3H] elastin): 5.5
elastinolytic activity relative to pancreatic elastase ([^3H] elastin; neutral pH): 2.4 times
elastinolytic activity ([^3H] elastin; pH 4.5): 245 mg/min/μmol enzyme
elastinolytic activity ([^3H] elastin; pH 5.5): 286 mg/min/μmol enzyme
elastinolytic activity relative to cathepsin L ([^3H] elastin; pH 5.5): ~9 times
elastinolytic activity ([^3H] elastin; pH 7.0): 170 mg/min/μmol enzyme
degradation of Type I collagen ([2]; between pH 5.0 and 6.0 at 28° C.): extensively degraded
degradation of Type I collagen ([2]; pH 4.5 and pH 7.0, 28° C.): much less pronounced
gelatinase activity [3]: powerful gelatinase activity
time to total degradation of denatured collagen ([3]; 0.1 nM enzyme, pH range of 5.0 to 7.0): ≤ 30 min

B4: papain: cysteine protease, literature comparison (protein, UniProt P00784 134-345, looked up)
Papain: IPEYVDWRQKGAVTPVKNQGSCGSCWAFSAVVTIEGIIKIRTGNLNEYSEQELLDCDRRSYGCNGGYPWSALQLVAQYGIHYRNTYPYEGVQRYCRSREKGPYAAKTDGVRQVQPYNEGALLYSIANQPVSVVLEAAGKDFQLYRGGIFVGPCGNKVDHAVAAVGYGPNYILIKNSWGTGWGENGYIRIKRGTGNSYGVCGLYTSSFYPVKN
pH optimum (pH activity profile): 6.5
pK1 of pH activity profile [4]: 4.54 ± 0.29
pK1′ of pH activity profile [4]: 3.58 ± 0.29
pK2 of pH activity profile [4]: 8.45 ± 0.02
width of the pH profile [4]: 3.91

B5: cathepsin S: recombinant human cathepsin S expressed using the baculovirus expression system (protein)
chain: LPDSVDWREKGCVTEVKYQGSCGACWAFSAVGALEAQLKLKTGKLVSLSAQNLVDCSTEKYGNKGCNGGFMTTAFQYIIDNKGIDSDASYPYKAMDQKCQYDSKYRAATCSKYTELPYGREVDLKEAVANKGPVSVGVDARHPSFFLYRSGVYYEPSCTQNVNHGVLVVGYGDLNGKEYWLVKNSWGHNFGEEGYIRMARNKGNHCGIASFPSYPEI
pH optimum (pH activity profile): 6.1
Residual activity (%) (pH stability at 37° C.; pH 5.5, 37° C., 0.5 hr): 100%
Residual activity (%) (pH stability at 37° C.; pH 5.5, 37° C., 1 hr): 95%
Residual activity (%) (pH stability at 37° C.; pH 5.5, 37° C., 2 hr): 92%
Residual activity (%) (pH stability at 37° C.; pH 5.5, 37° C., 4 hr): 83%
Residual activity (%) (pH stability at 37° C.; pH 6.5, 37° C., 0.5 hr): 100%
Residual activity (%) (pH stability at 37° C.; pH 6.5, 37° C., 1 hr): 100%
Residual activity (%) (pH stability at 37° C.; pH 6.5, 37° C., 2 hr): 94%
Residual activity (%) (pH stability at 37° C.; pH 6.5, 37° C., 4 hr): 71%
Residual activity (%) (pH stability at 37° C.; pH 7.5, 37° C., 0.5 hr): 91%
Residual activity (%) (pH stability at 37° C.; pH 7.5, 37° C., 1 hr): 72%
Residual activity (%) (pH stability at 37° C.; pH 7.5, 37° C., 2 hr): 61%
Residual activity (%) (pH stability at 37° C.; pH 7.5, 37° C., 4 hr): 60%
elastinolytic activity ([^3H] elastin; pH 4.5): 146 mg/min/μmol enzyme
elastinolytic activity ([^3H] elastin; pH 5.5): 102 mg/min/μmol enzyme
elastinolytic activity ([^3H] elastin; pH 7.0): 55 mg/min/μmol enzyme
collagenolytic activity [2]: very weak collagenolytic activity
gelatinase activity [3]: significant weaker activity than the cathepsins O2 and L
pK1 of pH activity profile [4]: 4.49 ± 0.03
pK2 of pH activity profile [4]: 7.82 ± 0.03
width of the pH profile [4]: 3.35
